In assay [1] the target is T1, mouse TREM2 on Expi 293 cells (mouse, UniProt Q99NH8 19-227).
T1 construct: also called Expi-mTREM2; mTREM2
T1 sequence: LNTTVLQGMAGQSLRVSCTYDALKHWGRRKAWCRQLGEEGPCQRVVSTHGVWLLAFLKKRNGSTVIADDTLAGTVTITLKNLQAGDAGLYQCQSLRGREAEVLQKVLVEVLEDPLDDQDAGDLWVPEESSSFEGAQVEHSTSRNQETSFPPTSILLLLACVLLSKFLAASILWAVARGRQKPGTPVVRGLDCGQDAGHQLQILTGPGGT
Nature of the assay: flow cytometry on Expi 293 cells over-expressing mouse TREM2; Alexa Fluor 647 anti-Fc secondary. As to the method:
(§1) 100,000 to 500,000 Expi 293 parental cells or Expi 293 cells over-expressing human or mouse TREM2 were plated in 96 well plates and dead cells were stained with Zombie Near Infrared (Biolegend). Titrations of indicated unconjugated antibodies were incubated with these cells within a range of 0 ug/ml to 10 ug/ml in a 1:3 dilution range across 8-10 points. Dependent on their isotype (hIgG1 or mIgG2a), these primary unconjugated antibodies were detected with Alexa Fluor 647 conjugated anti-human Fc or anti-mouse Fc secondary antibodies (Jackson Immunoresearch). Alexa Fluor 647 signal was measured by flow cytometry (BD Fortessa X-14, BD Biosciences). EC50 values were calculated by curve fitting signal generated from antibodies binding to over-expressing cells over background fluorescence generated from HEK293 parental cells in Graphpad Prism (Graphpad Software).
(In general: In flow cytometry, cells or beads pass a laser one at a time.)

Assay [2] concerns the target T2, TREM2 human IgG1 Fc fusion protein (human, UniProt Q9NZC2 19-174, limits assumed).
T2 construct: In-house, SEC purified to >95% purity; also called human TREM2-Fc; not shown: human IgG1 Fc
T2 sequence: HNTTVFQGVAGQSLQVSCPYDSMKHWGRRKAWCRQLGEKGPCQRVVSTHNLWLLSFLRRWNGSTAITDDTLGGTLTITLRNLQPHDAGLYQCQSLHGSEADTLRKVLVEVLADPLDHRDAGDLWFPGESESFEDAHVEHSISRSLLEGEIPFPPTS
Nature of the assay: SPR, Biacore T200; TREM2-Fc amine-coupled to CM5 chip, antibody injected; 1:1 Langmuir fit. On the procedure: (§2) Binding kinetics were determined by surface plasmon resonance using a Biacore T200 (GE Healthcare, UK) with human TREM2 His (Sino Biological, Beijing, P.R.China) or […] captured on Series S CM5 chips through anti-His capture or TREM2 human IgG1 Fc fusion protein (in-house SEC purified to >95% purity) directly immobilized to chips by amine coupling. Serial dilutions of indicated antibodies were injected at 30 ul/minute for 2 minutes. PBS or system buffer was then injected at 30 ul/minute for 400 seconds to observe dissociation. Binding responses were corrected by subtraction of responses on a blank flow cell. For kinetic analysis, a 1:1 Langmuir model of global fittings of kₒₙ and koff values, was used. The Kd values were determined from the ratios of kₒₙ and koff.

The target of assay [3] is T3, human TREM2 on Expi 293 cells (human, UniProt Q9NZC2 19-230).
T3 construct: also called Expi-hTREM2; hTREM2
T3 sequence: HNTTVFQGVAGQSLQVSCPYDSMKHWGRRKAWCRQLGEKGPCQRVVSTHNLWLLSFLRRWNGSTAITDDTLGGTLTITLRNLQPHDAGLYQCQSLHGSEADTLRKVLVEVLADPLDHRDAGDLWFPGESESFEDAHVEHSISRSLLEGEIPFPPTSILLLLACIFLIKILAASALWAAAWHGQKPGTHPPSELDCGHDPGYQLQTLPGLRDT
Nature of the assay: flow cytometry on Expi 293 cells over-expressing human TREM2; Alexa Fluor 647 anti-Fc secondary. On the procedure:
as §1

Assay [4] has as its target T4, human TREM2 His (Sino Biological) (human, UniProt Q9NZC2 19-174).
T4 construct: Bought reagent; the soluble reagent is probably only the extracellular part; not shown: His tag
T4 sequence: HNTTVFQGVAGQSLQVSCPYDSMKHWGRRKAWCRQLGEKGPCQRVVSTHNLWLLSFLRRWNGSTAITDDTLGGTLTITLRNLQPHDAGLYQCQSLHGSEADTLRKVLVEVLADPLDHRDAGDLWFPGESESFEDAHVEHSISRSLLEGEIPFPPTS
The assay can be described thus: SPR, Biacore T200; TREM2-His captured on CM5 chip by anti-His, antibody injected; 1:1 Langmuir fit. On the procedure: as §2
(SPR reads the build-up and loss of mass on a sensor chip optically.)

B1: PI37012 (antibody, human IgG1, kappa, V domains shown)
VH: EVQLLESGGGLVQPGGSLRLSCAASGFTFSNYYMAWVRQAPGKGLEWVSSLTNSGGSTYYADSVKGRFTISRDNSKNTLYLQMNSLRAEDTAVYYCTREWAGSGYFDYWGQGTLVTVSS
VL: DIQMTQSPSSLSASVGDRVTITCKASQNVGNNLAWYQQKPGKAPKLLIYYTSNRFTGVPSRFSGSGSGTDFTLTISSLQPEDFATYYCQRIYNSPWTFGQGTKLEIKR
notes: Humanized anti-TREM2 antibody, human IgG1, produced in HEK293; also called 37012 antibody; PI37012 anti-TREM2 mAb
What is called EC50 is the concentration needed to bring the measured effect to its halfway point. Low values mean a more potent agent, high ones a less potent agent. B1 displayed an EC50 in assay [1] of 0.5 nM.

B2: PI37017 (antibody, human IgG1, kappa, V domains shown)
VH: EVQLLESGGGLVQPGGSLRLSCAASGFTFSNYYMAWVRQAPGKGLEWVSSLTNSGGSTYYADSVKGRFTISRDNSKNTLYLQMNSLRAEDTAVYYCAKEWAGSGYFDYWGQGTLVTVSS
VL: DIQMTQSPSSLSASVGDRVTITCKASQNVGNNLAWYQQKPGKAPKLLIYYTSNRFTGVPSRFSGSGSGTDFTLTISSLQPEDFATYYCQRIYNSPWTFGQGTKLEIKR
notes: Parent humanized clone, human IgG1; also called 37017 antibody
A word on the Kd: it is the equilibrium constant for the complex coming apart. Higher therefore signals weaker binding. Usually koff stands for the rate constant with which the complex falls apart. Lower therefore signals a long-lived complex. Broadly, the kon is the second-order rate constant of association. The low end stands for slow association, the high end for fast association. B2: in assay [2], binding was characterised by a dissociation constant (Kd) of 18 nM, the koff came to 0.00614 s⁻¹ and the kon came out at 340000 M⁻¹ s⁻¹. A half-maximal response in assay [3] (EC50) required 23.3 nM. This molecule registered an EC50 in assay [1] of 3.6 nM.

B3: PI37014 (antibody, human IgG1, kappa, V domains shown)
VH: EVQLLESGGGLVQPGGSLRLSCAASGFTFSNYYMAWVRQAPGKGLEWVASLTNSGGSTYYADSVKGRFTLSRDNSKNTLYLQMNSLRAEDTAVYYCTREWAGSGYFDYWGQGTLVTVSS
VL: DIQMTQSPSSLSASVGDRVTITCKASQNVGNNLAWYQQKPGKAPKLLIYYTSNRFTGVPSRFSGSGSGTDFTLTISSLQPEDFATYYCQRIYNSPWTFGQGTKLEIKR
notes: Humanized anti-TREM2 antibody, human IgG1
In assay [2], B3 came in with a Kd of 1.55 nM, a koff of 0.000732 s⁻¹ and an association rate constant (kon) of 471000 M⁻¹ s⁻¹. In addition, the concentration for a half-maximal effect (EC50) in assay [3] stood at 1.4 nM. In assay [4], this molecule had a Kd of 4.74 nM, a koff of 0.00243 s⁻¹ and a kon of 511000 M⁻¹ s⁻¹.

B4: PI37013 (antibody, human IgG1, kappa, V domains shown)
VH: EVQLLESGGGLVQPGGSLRLSCAASGFTFSNYYMAWVRQAPGKGLEWVSSLTNSGGSTYYADSVKGRFTISRDNSKNTLYLQMNSLRAEDTAVYYCTREWAGSGYFDYWGQGTLVTVSS
VL: DIQMTQSPSSLSASVGDRVTMTCKASQNVGNNLAWYQQKPGKAPKLLLYYTSNRFTGVPSRFSGSGSGTDFTLTISSVQPEDFATYYCQRIYNSPWTFGQGTKLELKR
notes: as for B3
Regarding B4, in assay [2], binding was put at a Kd of 1.72 nM, the koff worked out at 0.000888 s⁻¹ and the kon is 517000 M⁻¹ s⁻¹. In addition, the EC50 in assay [3] is 1.4 nM. In assay [1], this molecule registered a 50% effective concentration (EC50) of 1.2 nM. In assay [4], this molecule had a Kd of 4.82 nM, a koff of 0.00549 s⁻¹ and a kon of 1.14e+06 M⁻¹ s⁻¹.

These data come from US20240301059A1 (PIONYR IMMUNOTHERAPEUTICS, published 2024).
